Patent publication US20260232827A1 (Zymeworks, published 2026)

T1: human sodium-dependent phosphate transporter 2B (NaPi2b) (human, UniProt O95436 1-690)
T1 sequence: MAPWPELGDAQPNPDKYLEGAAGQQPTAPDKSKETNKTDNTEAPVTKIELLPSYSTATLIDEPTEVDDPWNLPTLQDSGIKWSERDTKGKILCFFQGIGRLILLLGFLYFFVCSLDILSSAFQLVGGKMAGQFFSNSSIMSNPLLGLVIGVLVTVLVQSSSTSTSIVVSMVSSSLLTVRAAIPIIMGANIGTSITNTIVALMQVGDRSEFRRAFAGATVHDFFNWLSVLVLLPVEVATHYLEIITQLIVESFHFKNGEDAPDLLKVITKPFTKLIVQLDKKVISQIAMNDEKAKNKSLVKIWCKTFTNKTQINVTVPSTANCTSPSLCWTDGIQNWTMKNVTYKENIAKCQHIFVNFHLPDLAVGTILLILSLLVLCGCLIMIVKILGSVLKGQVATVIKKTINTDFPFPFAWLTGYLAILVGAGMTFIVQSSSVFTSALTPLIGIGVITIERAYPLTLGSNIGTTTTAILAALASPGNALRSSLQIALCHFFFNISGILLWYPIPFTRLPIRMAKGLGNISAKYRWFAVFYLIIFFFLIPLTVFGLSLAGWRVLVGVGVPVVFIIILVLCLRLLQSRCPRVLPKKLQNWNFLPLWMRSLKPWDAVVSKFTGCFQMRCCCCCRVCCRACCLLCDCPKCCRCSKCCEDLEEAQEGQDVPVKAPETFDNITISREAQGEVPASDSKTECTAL

B1: v22277 (palivizumab, anti-RSV negative control, heterodimeric Fc) (antibody, human IgG1, kappa)
heavy 1: GQVTLRESGPALVKPTQTLTLTCTFSGFSLSTSGMSVGWIRQPPGKALEWLADIWWDDKKDYNPSLKSRLTISKDTSKNQVVLKVTNMDPADTATYYCARSMITNWYFDVWGAGTTVTVSSASTKGPSVFPLAPSSKSTSGGTAALGCLVKDYFPEPVTVSWNSGALTSGVHTFPAVLQSSGLYSLSSVVTVPSSSLGTQTYICNVNHKPSNTKVDKKVEPKSCDKTHTCPPCPAPELLGGPSVFLFPPKPKDTLMISRTPEVTCVVVDVSHEDPEVKFNWYVDGVEVHNAKTKPREEQYNSTYRVVSVLTVLHQDWLNGKEYKCKVSNKALPAPIEKTISKAKGQPREPQVYVYPPSRDELTKNQVSLTCLVKGFYPSDIAVEWESNGQPENNYKTTPPVLDSDGSFALVSKLTVDKSRWQQGNVFSCSVMHEALHNHYTQKSLSLSPG
heavy 2: not shown
light: GDIQMTQSPSTLSASVGDRVTITCKSQLSVGYMHWYQQKPGKAPKLLIYDTSKLASGVPSRFSGSGSGTEFTLTISSLQPDDFATYYCFQGSGYPFTFGGGTKLEIKRTVAAPSVFIFPPSDEQLKSGTASVVCLLNNFYPREAKVQWKVDNALQSGNSQESVTEQDSKDSTYSLSSTLTLSKADYEKHKVYACEVTHQGLSSPVTKSFNRGEC
notes: also called neg control
B2: v38591 (humanized anti-NaPi2b antibody, wild-type Fc) (antibody, human IgG1, kappa)
heavy: not shown
light: DVQMTQSPSSLSASVGDRVTITCRASQDVYSYLNWYQQKPGKAVKLLIYYTSRLQSGVPSRFSGSGSGTDYTLTISSLQPEDFATYYCQQYNIFPWTFGQGTKLEIKRTVAAPSVFIFPPSDEQLKSGTASVVCLLNNFYPREAKVQWKVDNALQSGNSQESVTEQDSKDSTYSLSSTLTLSKADYEKHKVYACEVTHQGLSSPVTKSFNRGEC
notes: also called v38591 Wild-type; H1L2

Key:
[1] = target: T1, human sodium-dependent phosphate …; assay: cell-based or functional assay
[2] = target: T1, human sodium-dependent phosphate …; assay: flow cytometry on H441 cells (endogenous NaPi2b), 24 h at 4 C, anti-human IgG Fc AF647, APC-A GeoMean
Protocol: (§1) Cells were maintained under standard culture conditions (37° C./5% CO₂) until assay set-up. […] Cells were removed from culture vessels using Cell Dissociation Buffer (Invitrogen, Waltham, MA), seeded at 50,000 cells/well in conical-bottom 96-well plates, and treated with test antibody or antibody-drug conjugate for 24 hours at 4° C. to prevent internalization. […] Following incubation and washing, fluorescence was detected by flow cytometry on a BD LSRFortessa™ Cell Analyzer (BD Biosciences, Franklin Lake, NJ) with 1,000 minimum events collected per well.

[3] = target: T1, human sodium-dependent phosphate …; assay: flow cytometry on HCC-78 cells (endogenous NaPi2b), 24 h at 4 C, anti-human IgG Fc AF647, APC-A GeoMean
Protocol: as §1

[4] = target: T1, human sodium-dependent phosphate …; assay: flow cytometry on IGROV-1 cells (endogenous NaPi2b), 24 h at 4 C, anti-human IgG Fc AF647, APC-A GeoMean
Protocol: as §1

Binder	Internalized Fluorescence Fold-Over Palivizumab, HCC-78, 5 hrs, 10 nM [1] [fold]	Internalized Fluorescence Fold-Over Palivizumab, HCC-78, 24 hrs, 10 nM [1] [fold]	Internalized Fluorescence Fold-Over Palivizumab, NCI-H441, 5 hrs, 10 nM [1] [fold]	Internalized Fluorescence Fold-Over Palivizumab, NCI-H441, 24 hrs, 10 nM [1] [fold]	EC50 (read off the curve) [2] [nM]	EC50 (read off the curve) [3] [nM]	EC50 (read off the curve) [4] [nM]
B1	1	1	1	1	–	–	–
B2	–	–	–	–	~0.6	~3	~2
